Data on eight molecules can be found in US20100273186A1, “SPLIT MUTANT HYDROLASE FUSION REPORTER AND USES THEREOF” (Promega Corporation, priority 2007, published 2010).

Data set [1] is described as follows: Binding of substrate to DhaA mutants. The text has this: (§1) Carboxytetramethylrhodamine-C10H21NO2—Cl, carboxyfluorescein-C10H21NO2—Cl, and 5-carboxy-X-rhodamine-C10H21NO2—Cl bound to DhaA.H272F but not to DhaA.WT. Biotin-C10H21NO2—Cl bound to DhaA.H272F but not to DhaA.WT.
Data set [2] in a line: Binding of substrate to DhaA mutants.
Excerpt: as §1
DhaA.H272 mutants, i.e. H272F/G/A/Q, bound to carboxytetramethylrhodamine-C10H21NO2—Cl.
A control mutant, DhaA.D106Q, single mutants DhaA.D106C, DhaA.D106Y, and DhaA.D106E, as well as double mutants DhaA.D106C:H272F, DhaA.D106E:H272F, DhaA.D106Q:H272F, and DhaA.D106Y:H272F were analyzed for binding to carboxytetramethylrhodamine-C10H21NO2—Cl. Carboxytetramethylrhodamine-C10H21NO2—Cl bound to DhaA.D106C, DhaA.D106C:H272F, DhaA.D106E, and DhaA.H272F. Thus, the bond formed between carboxytetramethylrhodamine-C10H21NO2—Cl and cysteine or glutamate at residue 106 in a mutant DhaA is stable relative to the bond formed between carboxytetramethylrhodamine-C10H21NO2—Cl and DhaA.WT. Other substitutions at position 106 alone or in combination with substitutions at other residues in DhaA may yield similar results. Further, certain substitutions at position 106 alone or in combination with substitutions at other residues in DhaA may result in a mutant DhaA that forms a bond with only certain substrates.
The source holds these as a separate data set.

Data set [3] can be described thus: Fluorescence polarization (FP) labeling assay. Format: binding. The settings on record: relative to DhaA.H272F H11YL. An excerpt:
Fluorescence polarization (FP) is ideal for the study of small fluorescent ligands binding to proteins. It is unique among methods used to analyze molecular binding because it gives direct nearly instantaneous measure of a substrate bound/free ratio. Therefore, an FP assay was developed as an alternative approach to fluorimage gel analysis of the purified DhaA mutants. […] To place this rate in perspective, approximately 42 and 420-fold more A7 and parental, i.e., DhaA.H272F, protein, respectively, was required in the reaction to obtain measurable rates. Under the labeling conditions used, it is evident that the H11YL mutant was also considerably faster than A7 and parental, DhaA.H272F proteins with the fluorescein-based substrate. However, it appears that labeling of H11YL with carboxyfluorescein-C10H21NO2—Cl is markedly slower than labeling with the corresponding carboxytetramethylrhodamine-C10H21NO2—Cl substrate. Four-fold more H11YL protein was used in the carboxyfluorescein-C10H21NO2—Cl reaction (150 nM) versus the carboxytetramethylrhodamine-C10H21NO2—Cl reaction (35 nM), yet the rate observed appeared to be qualitatively slower than the observed carboxytetramethylrhodamine-C10H21NO2—Cl rate.
Based on the sensitivity and truly homogenous nature of this assay, FP was used to characterize the labeling properties of the purified DhaA mutants with the fluorescently coupled substrates. The data from these studies was then used to calculate a second order rate constant for each DhaA mutant-substrate pair. […] However, in each case labeling was slower with the carboxyfluorescein-C10H21NO2—Cl substrate. All of the first generation DhaA mutants characterized by FP had rates that ranged from 7 to 3555-fold faster than the corresponding parental protein. By far, the biggest impact on labeling rate by a single amino acid substitution occurred with the three replacements at the 273 position (Y273L, Y273M, and Y273C) in the DhaA.H272F background. Nevertheless, in each of the first generation DhaA.H272F mutants tested, labeling with the carboxyfluorescein-C10H21NO2—Cl substrate always occurred at a slower rate (1.6 to 46-fold). […] The H11YL rate constant of 2.2×10^6 M^−1 sec^−1 was nearly identical to the rate constant calculated for a carboxytetramethylrhodamine-coupled biotin/streptavidin interaction. This value is consistent with an on-rate of 5×10^6 M^−1 sec^1 determined for a biotin-streptavidin interaction using surface plasmon resonance analysis (Qureshi et al., 2001). Several of the second generation mutants also had improved rates with the carboxyfluorescein-C10H21NO2—Cl substrate, however, as noted previously, these rates were always slower than with the carboxytetramethylrhodamine-C10H21NO2—Cl substrate. […]
Background: In fluorescence polarisation assays a small probe gives low polarisation when free and higher when bound to something large.

A short description of the next data set: MagneGST-based assay. Format: binding. An excerpt:
An automated MagneGST™-based assay was used to screen the DhaA mutant protein libraries. […] For clones with at least 50% higher activity than the DhaA.H272F parent, the overall hit rate of the libraries examined varied from between 1-3%. Similar screening results were obtained for the DhaA.D106C libraries (data not shown). The hits identified by the initial primary screen were located in the master plates, consolidated, re-grown and reanalyzed using the MagneGST™ assay. Only those DhaA mutants with at least a 2-fold higher signal than the parental control upon reanalysis were chosen for sequence analysis.
The results of these analyses were consistent with protein labeling studies using SDS-PAGE fluorimage gel analysis. In an effort to determine if combinations of the best mutations identified in the DhaA.H272F background were additive, the three mutations at residue 273 were recombined with the DhaA.H272F A7 and DhaA.H272F H11 mutations. In order to distinguish these recombined protein mutants from the mutants identified in round one of screening (first generation), they are referred to as “second generation” DhaA mutants.

B1: DhaA.H272F: DhaA mutant, catalytic triad His272 replaced with Phe (protein, UniProt P0A3G2 1-293, looked up, variant H272F)
Haloalkane dehalogenase: MSEIGTGFPFDPHYVEVLGERMHYVDVGPRDGTPVLFLHGNPTSSYLWRNIIPHVAPSHRCIAPDLIGMGKSDKPDLDYFFDDHVRYLDAFIEALGLEEVVLVIHDWGSALGFHWAKRNPERVKGIACMEFIRPIPTWDEWPEFARETFQAFRTADVGRELIIDQNAFIEGALPKCVVRPLTEVEMDHYREPFLKPVDREPLWRFPNELPIAGEPANIVALVEAYMNWLHQSPVPKLLFWGTPGVLIPPAEAARLAESLPNCKTVDIGPGLFYLQEDNPDLIGSEIARWLPAL
Turning to B1, in data set [1], the “binding to 5-carboxy-X-rhodamine-C10H21NO2—Cl” value is reported as “bound”, the “binding to Biotin-C10H21NO2—Cl” value was “bound” and the “binding to carboxyfluorescein-C10H21NO2—Cl” value is “bound”. The “binding to carboxytetramethylrhodamine-C10H21NO2—Cl” value in data set [2] was “bound”. In addition, the “fold more protein required in the reaction to obtain measurable rates” value in data set [3] is on record as roughly 420 fold.

B2: DhaA.D106C:H272F: DhaA double mutant D106C and H272F (protein, UniProt P0A3G2 1-293, looked up, variant D106C H272F)
Haloalkane dehalogenase: MSEIGTGFPFDPHYVEVLGERMHYVDVGPRDGTPVLFLHGNPTSSYLWRNIIPHVAPSHRCIAPDLIGMGKSDKPDLDYFFDDHVRYLDAFIEALGLEEVVLVIHCWGSALGFHWAKRNPERVKGIACMEFIRPIPTWDEWPEFARETFQAFRTADVGRELIIDQNAFIEGALPKCVVRPLTEVEMDHYREPFLKPVDREPLWRFPNELPIAGEPANIVALVEAYMNWLHQSPVPKLLFWGTPGVLIPPAEAARLAESLPNCKTVDIGPGLFYLQEDNPDLIGSEIARWLPAL
With B2, the “binding to carboxytetramethylrhodamine-C10H21NO2—Cl” value in data set [2] is listed as “bound”.

B3: DhaA.D106E: DhaA single mutant D106E (protein, UniProt P0A3G2 1-293, looked up, variant D106E)
Haloalkane dehalogenase: MSEIGTGFPFDPHYVEVLGERMHYVDVGPRDGTPVLFLHGNPTSSYLWRNIIPHVAPSHRCIAPDLIGMGKSDKPDLDYFFDDHVRYLDAFIEALGLEEVVLVIHEWGSALGFHWAKRNPERVKGIACMEFIRPIPTWDEWPEFARETFQAFRTADVGRELIIDQNAFIEGALPKCVVRPLTEVEMDHYREPFLKPVDREPLWRFPNELPIAGEPANIVALVEAYMNWLHQSPVPKLLFWGTPGVLIPPAEAARLAESLPNCKTVDIGPGLHYLQEDNPDLIGSEIARWLPAL
For the molecule B3, the “binding to carboxytetramethylrhodamine-C10H21NO2—Cl” value in data set [2] was “bound”.

B4: DhaA.WT: wild type Rhodococcus rhodochrous dehalogenase (DhaA), SEQ ID NO:1 (protein, listed as Rhodococcus rhodochrous)
chain: MSEIGTGFPFDPHYVEVLGERMHYVDVGPRDGTPVLFLHGNPTSSYLWRNIIPHVAPSHRCIAPDLIGMGKSDKPDLDYFFDDHVRYLDAFIEALGLEEVVLVIHDWGSALGFHWAKRNPERVKGIACMEFIRPIPTWDEWPEFARETFQAFRTADVGRELIIDQNAFIEGALPKCVVRPLTEVEMDHYREPFLKPVDREPLWRFPNELPIAGEPANIVALVEAYMNWLHQSPVPKLLFWGTPGVLIPPAEAARLAESLPNCKTVDIGPGLHYLQEDNPDLIGSEIARWLPAL
Take B4: in data set [1], the “binding to 5-carboxy-X-rhodamine-C10H21NO2—Cl” value was “not”, the “binding to Biotin-C10H21NO2—Cl” value is given as “not” and the “binding to carboxyfluorescein-C10H21NO2—Cl” value is “not”. Moreover, the “binding to carboxytetramethylrhodamine-C10H21NO2—Cl” value in data set [2] is reported as “not”.

B5: YL: DhaA.H272F based mutant with Y273L (protein, UniProt P0A3G2 1-293, looked up, variant H272F Y273L)
Haloalkane dehalogenase: MSEIGTGFPFDPHYVEVLGERMHYVDVGPRDGTPVLFLHGNPTSSYLWRNIIPHVAPSHRCIAPDLIGMGKSDKPDLDYFFDDHVRYLDAFIEALGLEEVVLVIHDWGSALGFHWAKRNPERVKGIACMEFIRPIPTWDEWPEFARETFQAFRTADVGRELIIDQNAFIEGALPKCVVRPLTEVEMDHYREPFLKPVDREPLWRFPNELPIAGEPANIVALVEAYMNWLHQSPVPKLLFWGTPGVLIPPAEAARLAESLPNCKTVDIGPGLFLLQEDNPDLIGSEIARWLPAL
Regarding B5, in “MagneGST-based assay”, the “improvement over the parental clones” value is recorded as “significantly improved”.

B6: YC: DhaA.H272F based mutant with Y273C (protein, UniProt P0A3G2 1-293, looked up, variant H272F Y273C)
Haloalkane dehalogenase: MSEIGTGFPFDPHYVEVLGERMHYVDVGPRDGTPVLFLHGNPTSSYLWRNIIPHVAPSHRCIAPDLIGMGKSDKPDLDYFFDDHVRYLDAFIEALGLEEVVLVIHDWGSALGFHWAKRNPERVKGIACMEFIRPIPTWDEWPEFARETFQAFRTADVGRELIIDQNAFIEGALPKCVVRPLTEVEMDHYREPFLKPVDREPLWRFPNELPIAGEPANIVALVEAYMNWLHQSPVPKLLFWGTPGVLIPPAEAARLAESLPNCKTVDIGPGLFCLQEDNPDLIGSEIARWLPAL
Regarding B6, the “improvement over the parental clones” value in “MagneGST-based assay” is reported as “significantly improved”.

B7: DhaA.D106C: DhaA mutant, Asp106 replaced with Cys (protein, UniProt P0A3G2 1-293, looked up, variant D106C)
Haloalkane dehalogenase: MSEIGTGFPFDPHYVEVLGERMHYVDVGPRDGTPVLFLHGNPTSSYLWRNIIPHVAPSHRCIAPDLIGMGKSDKPDLDYFFDDHVRYLDAFIEALGLEEVVLVIHCWGSALGFHWAKRNPERVKGIACMEFIRPIPTWDEWPEFARETFQAFRTADVGRELIIDQNAFIEGALPKCVVRPLTEVEMDHYREPFLKPVDREPLWRFPNELPIAGEPANIVALVEAYMNWLHQSPVPKLLFWGTPGVLIPPAEAARLAESLPNCKTVDIGPGLHYLQEDNPDLIGSEIARWLPAL
In the case of B7, in data set [2], the “binding to carboxytetramethylrhodamine-C10H21NO2—Cl” value is listed as “bound”.

B8: YM: DhaA.H272F based mutant with Y273M (protein, UniProt P0A3G2 1-293, looked up, variant H272F Y273M)
Haloalkane dehalogenase: MSEIGTGFPFDPHYVEVLGERMHYVDVGPRDGTPVLFLHGNPTSSYLWRNIIPHVAPSHRCIAPDLIGMGKSDKPDLDYFFDDHVRYLDAFIEALGLEEVVLVIHDWGSALGFHWAKRNPERVKGIACMEFIRPIPTWDEWPEFARETFQAFRTADVGRELIIDQNAFIEGALPKCVVRPLTEVEMDHYREPFLKPVDREPLWRFPNELPIAGEPANIVALVEAYMNWLHQSPVPKLLFWGTPGVLIPPAEAARLAESLPNCKTVDIGPGLFMLQEDNPDLIGSEIARWLPAL
For the molecule B8, the “improvement over the parental clones” value in the data set “MagneGST-based assay” is given as “significantly improved”.
